According to paper PMC3429342:
Blank lines part the entries; values can stand above or below the substance they belong to.

Columns and labels:
Assay in all cases: AUC
[1] = biological target: Dscam1 3C.31.8 fragment containing the N-terminal 8 Ig domains (Drosophila melanogaster)
[2] = biological target: Dscam1 4C.31.8 fragment containing the N-terminal 8 Ig domains (Drosophila melanogaster)
[3] = biological target: Dscam1 11C.27.25 fragment containing the N-terminal 8 Ig domains (Drosophila melanogaster)
[4] = biological target: Dscam1 10C.27.25 fragment containing the N-terminal 8 Ig domains (Drosophila melanogaster)
[5] = biological target: Dscam1^3.31.8 fragment containing the N-terminal 8 Ig domains (Drosophila melanogaster)
[6] = biological target: Dscam1^10.27.25 fragment containing the N-terminal 8 Ig domains (Drosophila melanogaster)

Kd [3]: 4.6 µM
Kd [4]: > 500 µM
Substance: Dscam1 10C.27.25 fragment containing the N-terminal 8 Ig domains (domain or fragment)

Kd [3]: > 500 µM
Substance: Dscam1 11C.27.25 fragment containing the N-terminal 8 Ig domains (domain or fragment)

Kd [6]: 1 µM
stoichiometry N [6]: 2
Substance: Dscam1^10.27.25 fragment containing the N-terminal 8 Ig domains (domain or fragment)

More lines, now with the values behind:

Substance: Dscam1 3C.31.8 fragment containing the N-terminal 8 Ig domains (domain or fragment)
Kd [1]: > 500 µM
Kd [2]: 0.99 µM

Substance: Dscam1 4C.31.8 fragment containing the N-terminal 8 Ig domains (domain or fragment)
Kd [2]: > 500 µM

Substance: Dscam1^3.31.8 fragment containing the N-terminal 8 Ig domains (domain or fragment)
Kd [5]: 2.12 µM
stoichiometry N [5]: 2
